Measured values from publication PMC1874613.
Like-named read-outs stand apart in the source and are kept apart here.

Experiments:
[1] = molecular target: T1, Snu13p (yeast, UniProt P39990 1-126); assay: EMSA
T1 sequence: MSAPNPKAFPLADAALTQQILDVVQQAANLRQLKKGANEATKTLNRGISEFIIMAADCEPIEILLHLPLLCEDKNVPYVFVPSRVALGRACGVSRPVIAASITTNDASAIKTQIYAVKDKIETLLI

[2] = molecular target: T2, C-SBP2 (human, UniProt Q96T21 515-854); assay: EMSA
T2 sequence: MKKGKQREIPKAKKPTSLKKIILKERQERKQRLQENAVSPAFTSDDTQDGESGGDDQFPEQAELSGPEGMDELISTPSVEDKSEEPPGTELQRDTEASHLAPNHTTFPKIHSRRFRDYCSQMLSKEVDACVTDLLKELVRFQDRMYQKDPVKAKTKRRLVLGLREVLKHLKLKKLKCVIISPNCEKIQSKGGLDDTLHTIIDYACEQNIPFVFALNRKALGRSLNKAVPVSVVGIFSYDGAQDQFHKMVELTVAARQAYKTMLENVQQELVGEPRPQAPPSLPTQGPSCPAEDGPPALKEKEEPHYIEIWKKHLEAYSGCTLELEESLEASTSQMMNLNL

[3] = molecular target: T1, Snu13p; assay: EMSA; remark: listed apart in the source
[4] = molecular target: T2, C-SBP2; assay: EMSA; remark: listed apart in the source
[5] = molecular target: T2, C-SBP2; assay: EMSA; remark: listed apart in the source
[6] = molecular target: T1, Snu13p; assay: competition
[7] = molecular target: T2, C-SBP2; assay: EMSA; remark: listed apart in the source
[8] = molecular target: T1, Snu13p; assay: EMSA; remark: listed apart in the source

B1: Se1 (G-C)5 to (G.G)5 (structured_RNA)
RNA: GGACCUUUGUACCCCAGAUGAUGGCUUCACUGGUUGAUGGGUACAAAUGGCAG
- binding signal [1]: ~20 fold lower affinity than Se1

B2: Se1 (structured_RNA)
RNA: GGACCUUUGUACCCCAGAUGAUGGCUUCACUGCUUGAUGGGUACAAAUGGCAG
- Kd [2]: 500 nM
- Kd [3]: 35 nM

B3: Se2 (structured_RNA)
RNA: GGACCUUUGUACCCCAGAUGACGGCUCAUUUCGUGCUUGAUGGGUACAAAUGGCAG
- binding result [4]: binds

B4: Se4 (structured_RNA)
RNA: GGACCUUUGUACCCCAGAUGAUAGUAAAGCGCGGCUUGAUGGGUACAAAUGGCAG
- binding result [4]: binds

B5: Se5 (structured_RNA)
RNA: GGACCUUUGUACCCCAGAUGAUAGUGAGGCGCGGCUUGAUGGGUACAAAUGGCAG
- binding result [4]: binds

B6: Se6 (structured_RNA)
RNA: GGACCUUUGUACCCCAGAUGAUAGUAAGGCGCGGCUUGAUGGGUACAAAUGGCAG
- binding result [4]: binds

B7: Se3 (structured_RNA)
RNA: GGACCUUUGUACCCCAGAUGAUGCUUUAUCAGGCGGAUGGGUACAAAUGGCAG
- binding result [4]: binds

B8: Se1:Ins + loop (structured_RNA)
RNA: GGACCUUUGUACCCCAGUUUAUGAUGGAUCUUCACUGAUCUUGAUCCCCUGGGUACAAAUGGCAG
- binding signal [5]: 4 fold higher affinity than Se1
- binding result [6]: binds

B9: Se1:Ins (structured_RNA)
RNA: GGACCUUUGUACCCCAGAUGAUGGGCCUUCACUGGCCUUGAUGGGUACAAAUGGCAG
- Kd [7]: 300 nM
- Kd [8]: 25 nM
